Experimental data as given in patent publication US7470669B2, “Isolated polypeptide comprising a leptin fragment” (Serono Genetics Institute, S.A., priority 1999, dated 2008).

What was measured:
LDL-receptor = LDL-receptor (Homo sapiens, UniProt P01130); experiment: Degradation of LDL by the LDL-receptor; format: cell-based; conditions: leptin up to 2 μg/mL
LSR α′ = molecular target: T1, LSR α′ (Homo sapiens, UniProt Q86X29); experiment: 125I-leptin binding, uptake and degradation in CHO-K1 cells transfected with LSR α′; format: cell-based
T1 construct: The full-length LSR α, α′, and β clones were reconstructed in pTracer-CMV2 vector; expressed in transfected cells; host or cells: CHO-K1 (transient with Fugene)
T1 sequence (Q86X29 1-630 isoform Q86X29-4): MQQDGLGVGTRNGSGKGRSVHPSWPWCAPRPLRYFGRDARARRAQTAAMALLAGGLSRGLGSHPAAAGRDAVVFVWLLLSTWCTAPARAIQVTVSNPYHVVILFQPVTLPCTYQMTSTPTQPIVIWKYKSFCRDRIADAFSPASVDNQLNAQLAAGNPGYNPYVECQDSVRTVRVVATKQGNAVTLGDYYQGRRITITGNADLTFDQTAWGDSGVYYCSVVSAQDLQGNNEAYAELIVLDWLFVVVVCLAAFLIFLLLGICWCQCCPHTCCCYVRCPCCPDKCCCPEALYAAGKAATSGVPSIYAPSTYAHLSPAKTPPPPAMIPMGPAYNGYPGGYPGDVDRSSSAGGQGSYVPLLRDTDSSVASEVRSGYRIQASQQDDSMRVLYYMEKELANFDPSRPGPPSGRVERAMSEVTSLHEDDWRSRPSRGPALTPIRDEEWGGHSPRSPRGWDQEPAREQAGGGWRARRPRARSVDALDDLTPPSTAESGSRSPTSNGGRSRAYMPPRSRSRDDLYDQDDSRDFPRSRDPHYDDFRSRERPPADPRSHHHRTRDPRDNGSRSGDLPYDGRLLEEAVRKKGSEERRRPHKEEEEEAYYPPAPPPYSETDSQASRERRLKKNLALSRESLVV
Procedure: FIGS. 3A, 3B, 3C, and 3D show the effect of LSR subunit transfection on leptin binding and degradation in CHO-K1 cells. For FIG. 3A, CHO-K1 cells were transfected with increasing concentrations of the α, (□), α′ (▪) or β (◯) LSR plasmid, or vector alone (●) using Fugene transfection reagent. After 48 h, the cells were washed once in PBS and incubated at 37° C. for 2 h with 10 ng/mL of ^125I-leptin in DMEM containing 0.2% (w/v) BSA, 2 mM CaCl2 and 5 mM HEPES, pH 7.4 (Buffer A). The monolayers were washed and lysed with 0.1 N NaOH containing 0.24 mM EDTA, and the lysates were counted. The results are shown as the amount of cell-associated ^125I-leptin. For FIG. 3B, lysates were prepared from CHO-K1 wild type, stable transfectants of vector or LSR α′ subunit, and PLC, and separated on a 10% SDS-polyacrylamide gel under denaturing and reduced conditions. After transfer to nitrocellulose, Western blots were performed using anti-LSR 170 antibody (can also be done with the human equivalent, 93A). Northern blots were done to detect LSR mRNA in CHO-K1 wild-type versus PLC. RT-PCR analysis was also done in CHO-K1 as compared to PLC. For FIGS. 3C and 3D, confluent monolayers of stable-transfected cell lines expressing LSR α′ subunit (▪) or vector alone (●) were washed once in PBS and incubated at 37° C. for 2 h with increasing concentrations of ^125I-leptin in Buffer A. The amount of cell-associated (FIG. 3C) and degraded (FIG. 3D) ^125I-leptin was then measured as described herein. Results are shown as the mean of triplicate determinations.
CHO-K1 cells were plated at a density of 300,000 cells/36 mm dish the day before transfection. After 24 h, plasmid preincubated with Fugene transfection reagent was added to the cells, which were further incubated at 37° C. Cells were used 48 h after transfection as described in the Brief Description of the Figures.
Stable transfectants were prepared from CHO-K1 cells using Superfect according to the manufacturer's instructions. After introduction of the plasmid into the cell with Superfect, the cells were grown in the presence of 750 μg/mL zeocin. After elimination of untransfected cells, the antibiotic concentration was reduced to 500 μg/mL. Clones were isolated using cloning cylinders, and maintained in tissue culture media containing 100 μg/mL zeocin.
To determine which of the LSR subunits is responsible for leptin binding, CHO-K1 cells were transiently transfected with increasing concentrations of each of the 3 human LSR plasmids (FIG. 3A). CHO-K1 cells were selected because they had the lowest level of endogenous LSR expression of the different cell lines tested. This level is far lower than that of a human hepatocyte cell line (PLC) used to systematically characterize human LSR activity (FIG. 3B). […]

LSR = experiment: 125I-leptin degradation in PLC cells; format: cell-based, human; conditions: PLC cells, 2 h incubation
Ob-R = molecular target: T2, Ob-R (Mus musculus, UniProt P48356); conditions: Tartaglia et al, 1995; cited from earlier work
T2 sequence (P48356 22-894 isoform P48356-2 limits assumed): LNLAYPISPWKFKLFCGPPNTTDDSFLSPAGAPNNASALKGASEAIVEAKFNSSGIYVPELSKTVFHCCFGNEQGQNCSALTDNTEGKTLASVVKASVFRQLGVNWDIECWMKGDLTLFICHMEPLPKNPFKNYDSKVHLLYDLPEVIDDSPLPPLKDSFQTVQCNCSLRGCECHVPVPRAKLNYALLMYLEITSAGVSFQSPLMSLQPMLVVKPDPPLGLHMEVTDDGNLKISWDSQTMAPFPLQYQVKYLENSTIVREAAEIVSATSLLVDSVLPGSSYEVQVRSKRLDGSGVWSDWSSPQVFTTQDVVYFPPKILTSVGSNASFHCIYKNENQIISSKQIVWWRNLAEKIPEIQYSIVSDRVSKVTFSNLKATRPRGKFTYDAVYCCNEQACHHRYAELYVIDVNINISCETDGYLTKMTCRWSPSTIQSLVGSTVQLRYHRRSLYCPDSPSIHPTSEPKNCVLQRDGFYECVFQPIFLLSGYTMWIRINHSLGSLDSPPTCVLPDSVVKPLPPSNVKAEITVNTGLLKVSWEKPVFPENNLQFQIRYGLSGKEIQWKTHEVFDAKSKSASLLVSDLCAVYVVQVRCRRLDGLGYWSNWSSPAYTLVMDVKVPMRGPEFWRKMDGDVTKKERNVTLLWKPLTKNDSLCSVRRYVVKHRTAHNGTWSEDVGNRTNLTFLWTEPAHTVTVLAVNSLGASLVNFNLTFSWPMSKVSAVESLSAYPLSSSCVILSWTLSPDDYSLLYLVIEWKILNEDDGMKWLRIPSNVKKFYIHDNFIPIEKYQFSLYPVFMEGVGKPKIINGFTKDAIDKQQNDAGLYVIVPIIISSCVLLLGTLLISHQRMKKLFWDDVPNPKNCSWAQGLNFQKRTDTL

Chain of LDL-receptor (P01130 22-860, species assumed): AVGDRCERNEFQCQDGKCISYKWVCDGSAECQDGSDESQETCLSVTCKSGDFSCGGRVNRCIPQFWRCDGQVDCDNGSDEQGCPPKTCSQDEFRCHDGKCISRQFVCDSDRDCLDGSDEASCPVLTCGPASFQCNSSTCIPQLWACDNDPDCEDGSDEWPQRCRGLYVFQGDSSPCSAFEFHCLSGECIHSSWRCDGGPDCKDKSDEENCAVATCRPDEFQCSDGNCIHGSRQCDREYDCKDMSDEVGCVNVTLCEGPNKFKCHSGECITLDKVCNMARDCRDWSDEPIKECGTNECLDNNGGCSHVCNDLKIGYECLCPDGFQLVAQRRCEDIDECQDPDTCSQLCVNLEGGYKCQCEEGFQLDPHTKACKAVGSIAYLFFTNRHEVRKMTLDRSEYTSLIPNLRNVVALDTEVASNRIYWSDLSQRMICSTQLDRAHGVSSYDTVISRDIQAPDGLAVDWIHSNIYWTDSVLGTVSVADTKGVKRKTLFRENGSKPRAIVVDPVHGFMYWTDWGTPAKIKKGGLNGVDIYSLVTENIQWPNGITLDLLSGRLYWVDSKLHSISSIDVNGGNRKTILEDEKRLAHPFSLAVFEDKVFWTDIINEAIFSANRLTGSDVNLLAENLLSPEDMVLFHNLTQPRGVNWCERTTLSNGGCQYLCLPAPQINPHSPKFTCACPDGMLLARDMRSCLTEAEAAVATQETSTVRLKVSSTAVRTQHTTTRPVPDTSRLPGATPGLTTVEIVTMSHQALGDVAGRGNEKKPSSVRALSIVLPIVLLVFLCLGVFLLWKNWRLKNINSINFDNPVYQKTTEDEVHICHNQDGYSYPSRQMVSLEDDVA

In the case of “leptin: plasma protein of 16 kDa produced by adipocytes; recombinant human or mouse leptin, species depends on the experiment”, the “degradation of LDL by the LDL-receptor” value (LDL-receptor) is reported as “no detectable effect”, the Kd (LSR α′; CHO-K1 cells stably expressing LSR α′, Lineweaver-Burk transformation, read-out: estimated Kd of leptin binding) is reported as 1.3 nM and the “amount of 125I-leptin degraded as share of that bound and internalized by the cells” value (LSR α′; CHO-K1 cells transfected with LSR α′) is reported as 16%. The “Kd relative to that of the Ob-R” value (LSR α′; LSR α′ Kd versus Ob-R Kd) was ~2 fold, the “binding of leptin to CHO-K1 cells” value (LSR α′; transient transfection with LSR α′ plasmid, 10 ng/mL 125I-leptin, 2 h 37° C.) was “increased” and the “leptin concentration at which 125I-leptin degradation saturated” value (LSR) was ≥ 10 ng/mL. For the same substance, the Kd (Ob-R) was 0.7 nM.
